Residues, ends and D or L forms follow the SMILES beside them. *: point of attachment. X1 = COc1ccc2c3c1OC1C(O*)=CCC4[C@@H](C2)N(C)CC[C@]314
What was measured:
[1] = stability 90 C., 20 min (V, BP, TW, BS) of hydrocodone conjugates; conditions: for stability 90 C., 20 min BP: BP (abbreviation not defined); for stability 90 C., 20 min BS: BS (abbreviation not defined); for stability 90 C., 20 min TW: TW (abbreviation not defined); for stability 90 C., 20 min V: V (abbreviation not defined)
[2] = Intranasal bioavailability of hydrocodone conjugates; conditions: rats, relative to hydrocodone
[3] = Oral bioavailability of hydrocodone conjugates (plasma hydrocodone plus hydromorphone); conditions: for bioavailabiltty (% HC) oral AUC / bioavailabiltty (% HC) oral Cmax: rats, relative to hydrocodone; for Oral:IN Index AUC: ratio of oral to IN AUC (% HC); for Oral:IN Index Cmax: ratio of oral to IN Cmax (% HC)

SMILES	stability 90 C., 20 min BP [1]	stability 90 C., 20 min BS [1]	stability 90 C., 20 min TW [1]	stability 90 C., 20 min V [1]	bioavailabiltty (% HC) IN AUC [2]	bioavailabiltty (% HC) IN Cmax [2]	bioavailabiltty (% HC) oral AUC [3]	bioavailabiltty (% HC) oral Cmax [3]	Oral:IN Index AUC [3]	Oral:IN Index Cmax [3]
CC[C@H](C)[C@H](NC(=O)[C@H](CC(=O)O)NC(=O)[C@H](CC(=O)O)NC(=O)[C@H](CCC(=O)O)NC(=O)[C@@H](N)CCC(=O)O)C(=O)OC1=CCC2[C@H]3Cc4ccc(OC)c5c4[C@@]2(CCN3C)C1O5 (some centres unmarked) [Glu2-Asp2-Ile-HC] (H-EEDDI-X1)	77	100	15	1	53 % HC	81 % HC	108 % HC	129 % HC	2.04	1.59
CC[C@H](C)[C@H](NC(=O)CNC(=O)CNC(=O)[C@H](CCC(=O)O)NC(=O)[C@@H](N)CCC(=O)O)C(=O)OC1=CCC2[C@H]3Cc4ccc(OC)c5c4[C@@]2(CCN3C)C1O5 (some centres unmarked) [Glu2-Gly2-Ile-HC, Glu2-Gly2-Ile-Hydrocodone] (H-EEGGI-X1)	99	99	23	0	50 % HC	56 % HC	81 % HC	77 % HC		
COc1ccc2c3c1OC1C(OC(=O)[C@H](Cc4ccccc4)NC(=O)CNC(=O)CNC(=O)[C@H](CCC(=O)O)NC(=O)[C@@H](N)CCC(=O)O)=CCC4[C@@H](C2)N(C)CC[C@]314 (some centres unmarked) [Glu2-Gly2-Phe-HC] (H-EEGGF-X1)	100	100	100	0	89 % HC	97 % HC	110 % HC	112 % HC	1.24	1.15
CC[C@H](C)[C@H](NC(=O)[C@H](Cc1ccccc1)NC(=O)[C@H](Cc1ccccc1)NC(=O)[C@H](CCC(=O)O)NC(=O)[C@@H](N)CCC(=O)O)C(=O)OC1=CCC2[C@H]3Cc4ccc(OC)c5c4[C@@]2(CCN3C)C1O5 (some centres unmarked) [Glu2-Phe2-Ile-HC] (H-EEFFI-X1)	100	100	33	0	68 % HC	76 % HC	96 % HC	129 % HC	1.41	1.70
COc1ccc2c3c1OC1C(OC(=O)[C@H](Cc4ccccc4)NC(=O)[C@H](Cc4ccccc4)NC(=O)[C@H](Cc4ccccc4)NC(=O)[C@H](CCC(=O)O)NC(=O)[C@@H](N)CCC(=O)O)=CCC4[C@@H](C2)N(C)CC[C@]314 (some centres unmarked) [Glu2-Phe3-HC, Glu2-Phe3-Hydrocodone] (H-EEFFF-X1)	100	84	57	3	27 % HC	47 % HC	83 % HC	89 % HC	3.07	1.89
CC[C@H](C)[C@H](NC(=O)[C@H](CCC(=O)O)NC(=O)[C@@H](N)CCC(=O)O)C(=O)OC1=CCC2[C@H]3Cc4ccc(OC)c5c4[C@@]2(CCN3C)C1O5 (stereo partly drawn) [Glu-Glu-Ile-HC]	94	100	26	0	52 % HC	59 % HC	83 % HC	112 % HC	1.60	1.90
CC[C@H](C)[C@H](NC(=O)[C@H](CCC(=O)O)NC(=O)[C@H](CCC(=O)O)NC(=O)CNC(=O)CN)C(=O)OC1=CCC2[C@H]3Cc4ccc(OC)c5c4[C@@]2(CCN3C)C1O5 (some centres unmarked) [Gly2-Glu2-Ile-HC] (H-GGEEI-X1)	74	100	11	0	66 % HC	77 % HC	96 % HC	119 % HC	1.45	1.55
CC[C@H](C)[C@H](NC(=O)[C@@H]1CCCN1C(=O)[C@@H]1CCCN1C(=O)CNC(=O)CN)C(=O)OC1=CCC2[C@H]3Cc4ccc(OC)c5c4[C@@]2(CCN3C)C1O5 (some centres unmarked) [Gly2-Pro2-Ile-HC] (H-GGPPI-X1)	73	100	70	0	44 % HC	56 % HC	94 % HC	121 % HC	2.14	2.16
COc1ccc2c3c1OC1C(OC(=O)[C@H](Cc4ccccc4)NC(=O)[C@@H]4CCCN4C(=O)[C@@H](N)CC(C)C)=CCC4[C@@H](C2)N(C)CC[C@]314 (stereo partly drawn) [Leu-Pro-Phe-HC]	100	100	100	2	83 % HC	101 % HC	106 % HC	125 % HC	1.28	1.24
CC[C@H](C)[C@H](NC(=O)[C@H](CC(=O)O)NC(=O)[C@H](CC(=O)O)NC(=O)[C@H](CCCCN)NC(=O)[C@@H](N)CCCCN)C(=O)OC1=CCC2[C@H]3Cc4ccc(OC)c5c4[C@@]2(CCN3C)C1O5 (some centres unmarked) [Lys2-Asp2-Ile-HC] (H-KKDDI-X1)	64	100	0	0	39 % HC	56 % HC	90 % HC	121 % HC	2.31	2.16
CC[C@H](C)[C@H](NC(=O)[C@@H]1CCCN1C(=O)[C@@H]1CCCN1C(=O)[C@H](CCCCN)NC(=O)[C@@H](N)CCCCN)C(=O)OC1=CCC2[C@H]3Cc4ccc(OC)c5c4[C@@]2(CCN3C)C1O5 (some centres unmarked) [Lys2-Pro2-Ile-HC] (H-KKPPI-X1)	72	100	66	0	68 % HC	94 % HC	80 % HC	76 % HC	1.18	0.81
CC[C@H](C)[C@H](NC(=O)[C@H](CCCCN)NC(=O)[C@@H](N)CCCCN)C(=O)OC1=CCC2[C@H]3Cc4ccc(OC)c5c4[C@@]2(CCN3C)C1O5 (stereo partly drawn) [Lys-Lys-Ile-HC]	100	97	96	0	68 % HC	94 % HC	80 % HC	76 % HC	1.18	0.81
CC[C@H](C)[C@H](NC(=O)[C@@H]1CCCN1)C(=O)N[C@H](C(=O)OC1=CCC2[C@H]3Cc4ccc(OC)c5c4[C@@]2(CCN3C)C1O5)[C@@H](C)CC (stereo partly drawn) [Pro-Ile-Ile-HC]	47	100	83	0	86 % HC	102 % HC	104 % HC	99 % HC	1.21	0.97
